From paper PMC7319358

Target: Cy5UbPRG fluorescent activity-based probe (UniProt P0CG48)

Substance: recombinant DUB2 (enzyme)
- percent of DUB2 reacted with the probe: 85%
